Patent publication US20130177924A1

Tests used:
[1] = biological target: blocked scFv having an HRV-3C protease substrate in the peptide linker (H6-MG VH / HL1-TO1 VL), pept; test: cell-based or functional assay
[2] = biological target: blocked scFv having a caspase 3 protease substrate in the peptide linker (H6-MG VH / HL1-TO1 VL), peptide construct SEQ ID NO:51, displayed on yeast; test: cell-based or functional assay

| Substance | time to complete activation of MG fluorescence, 10^6 yeast cells with 1 unit of HRV-3C protease at 25 C [1] [min] | time to complete activation of MG fluorescence, 10^6 yeast cells with 1 unit of caspase 3 protease at 25 C [2] [min] |
| --- | --- | --- |
| Human Rhinovirus 3C protease (enzyme) | 30 |  |
| caspase 3 protease (enzyme) |  | 30 |
